To fix the notation:
B1: caspase-1^CARD (1-95, G20K), as it stands in the fusion m16 (domain or fragment, UniProt P29466 1-95, looked up)
chain: MADKVLKEKRKLFIRSMGEKTINGLLDELLQTRVLNKEEMEKVKRENATVMDKTRALIDSVIPKGAQACQICITYICEEDSYLAGTLGLSADQTS
notes: caspase-1, CARD, residues 1-95, type IIb mutant G20K; Joined on one chain with m17 through a 5x GSS linker; source: E. coli BL21 (DE3), purified as part of the fusion protein m16

For data set [1], the target named is CARD8^CARD (P446-L537, A452C), MBP tag cleaved (human) (UniProt Q9Y2G2). Description: negative stain EM of filament formation; purified MBP-fused protein cleaved with 3C protease for 3 h at 37 °C at different concentrations (0.1 to 30 µM), then negatively stained with 1% uranyl formate and imaged.
Data set [2] concerns the molecule itself. Description: cryo-EM structure; ASC^CARD-caspase-1^CARD octamer; 25 mM Tris-HCl pH 8.0, 150 mM NaCl, 2 mM DTT; 3.9 Å map.
Data set [3] deals with the molecule itself. Put plainly: SEC; preparative SEC of amylose-purified His-MBP fusions (Superdex 200 for MBP-CARD, Superose 6 for MBP-UPA and MBP-NLRP1-CT); 25 mM Tris-HCl pH 7.5, 150 mM NaCl, 1 mM TCEP.
Data set [4] concerns the molecule itself. Description: SEC-MALS; Superdex 200 in 25 mM Tris-HCl pH 8.0, 150 mM NaCl, 2 mM DTT, three-angle light scattering and refractive index detectors, 0.5 mL/min.
Data set [5] deals with B1. Description: cryo-EM structure; ASC^CARD-caspase-1^CARD octamer; 25 mM Tris-HCl pH 8.0, 150 mM NaCl, 2 mM DTT; 3.9 Å map. Conditions: both partners purified.

Molecule “CARD8^CARD (P446-L537, A452C), MBP tag cleaved (from UniProt Q9Y2G2-5 446-537) (domain or fragment)” showed a minimum concentration required to form filaments in data set [1] of 15 µM.

On to B1, for which the binding result in data set [2] was “binds”.

B2: NLRP1 His-MBP-3C-UPA (S1213-P1364), uncleaved (domain or fragment, human, UniProt Q9C000-1 1213-1364, looked up)
chain: SPLGVLLKMIHNALRFIPVTSVVLLYHRVHPEEVTFHLYLIPSDCSIRKAIDDLEMKFQFVRIHKPPPLTPLYMGCRYTVSGSGSGMLEILPKELELCYRSPGEDQLFSEFYVGHLGSGIRLQVKDKKDETLVWEALVKPGDLMPATTLIPP
notes: NLRP1, human, UPA S1213-P1364, isoform 1 (UniProt Q9C000-1); also called oligomeric MBP-UPA protein; source: E. coli BL21 (DE3), purified (amylose resin, Superose 6); not shown: His, N-terminal, kept; MBP, N-terminal, kept
Regarding B2, in data set [3], the binding result was “binds”.

B3: ASC^CARD (106-195, W169G)-5xGSS-caspase-1^CARD (1-95, G20K) fusion protein (other)
chain: SAAKPGLHFIDQHRAALIARVTNVEWLLDALYGKVLTDEQYQAVRAEPTNPSKMRKLFSFTPAGNWTCKDLLLQALRESQSYLVEDLERSGSSGSSGSSGSSGSSMADKVLKEKRKLFIRSMGEKTINGLLDELLQTRVLNKEEMEKVKRENATVMDKTRALIDSVIPKGAQACQICITYICEEDSYLAGTLGLSADQTS
notes: ASC (apoptosis-associated speck-like protein containing a CARD), CARD, residues 106-195, type IIa mutant W169G; 5x GSS linker, written out from the printed '5XGSS'; caspase-1, CARD, residues 1-95, type IIb mutant G20K; Four fusion chains form an octamer of CARDs; also called ASC^CARD-caspase-1^CARD octamer; ASC^CARD-caspase-1^CARD fusion protein; source: E. coli BL21 (DE3), purified (Ni-NTA, TEV …)
Usually stoichiometry N stands for the number of molecules, sites or subunits per partner or assembly. Consider B3, for which the “stoichiometry N” value in data set [4] worked out at 4.

B4: ASC^CARD (106-195, W169G), as it stands in the fusion m16 (domain or fragment, UniProt Q9ULZ3 106-195, looked up)
chain: SAAKPGLHFIDQHRAALIARVTNVEWLLDALYGKVLTDEQYQAVRAEPTNPSKMRKLFSFTPAGNWTCKDLLLQALRESQSYLVEDLERS
notes: ASC (apoptosis-associated speck-like protein containing a CARD), CARD, residues 106-195, type IIa mutant W169G; Joined on one chain with m18 through a 5x GSS linker; source: E. coli BL21 (DE3), purified as part of the fusion protein m16
Take B4: the binding result in data set [5] and in data set [2] was “binds” throughout.

B5: CARD8 His-MBP-3C-UPA (S297-P446), uncleaved (domain or fragment, human, UniProt Q9Y2G2-5 297-446, looked up)
chain: SLMGILLRIASGTRLSIPITSNTLIYYHPHPEDIKFHLYLVPSDALLTKAIDDEEDRFHGVRLQTSPPMEPLNFGSSYIVSNSANLKVMPKELKLSYRSPGEIQHFSKFYAGQMKEPIQLEITEKRHGTLVWDTEVKPVDLQLVAASAPP
notes: CARD8, human, UPA S297-P446; numbers count on: T60 isoform, UniProt Q9Y2G2-5; Made by a stop codon in the CARD8 His-MBP-3C-UPA-CARD plasmid; also called oligomeric MBP-UPA protein; source: E. coli BL21 (DE3), purified (amylose resin, Superose 6); not shown: His, N-terminal, kept; MBP, N-terminal, kept
For the molecule B5, the binding result in data set [3] is on record as “binds”.

The values above are taken from article PMC7794386, “Mechanism of filament formation in UPA-promoted CARD8 and NLRP1 inflammasomes” (Nature Communications, 2021).
